From patent US20180282410A1 (Hoffmann-La Roche, published 2018)

T1: human (hu) Robo 4 extracellular domain (ECD)-precision site (PreS)-Avi-tag (Avi)-6x histidine (His) (human)
T1 construct: it holds the ECD with PreScission site, Avi-tag and His-tag; also called recombinant human Robo 4; human Robo 4
T1 chain: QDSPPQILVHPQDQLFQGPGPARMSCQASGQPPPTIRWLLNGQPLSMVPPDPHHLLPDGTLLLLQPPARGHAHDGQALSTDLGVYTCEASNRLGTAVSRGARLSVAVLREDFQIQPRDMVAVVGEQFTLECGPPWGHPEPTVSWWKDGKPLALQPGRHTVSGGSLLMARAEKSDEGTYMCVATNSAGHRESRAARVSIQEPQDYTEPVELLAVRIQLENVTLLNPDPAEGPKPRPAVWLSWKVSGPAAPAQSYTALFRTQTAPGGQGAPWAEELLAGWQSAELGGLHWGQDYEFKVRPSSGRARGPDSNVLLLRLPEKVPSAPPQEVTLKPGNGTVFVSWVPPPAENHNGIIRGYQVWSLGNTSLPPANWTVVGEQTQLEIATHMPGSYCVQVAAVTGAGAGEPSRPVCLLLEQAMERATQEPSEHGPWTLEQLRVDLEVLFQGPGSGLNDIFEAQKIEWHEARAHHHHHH

T2: murine (mu) Robo 4 ECD-PreS-Avi-His (mouse)
T2 construct: also called recombinant murine Robo 4; murine Robo 4
T2 chain: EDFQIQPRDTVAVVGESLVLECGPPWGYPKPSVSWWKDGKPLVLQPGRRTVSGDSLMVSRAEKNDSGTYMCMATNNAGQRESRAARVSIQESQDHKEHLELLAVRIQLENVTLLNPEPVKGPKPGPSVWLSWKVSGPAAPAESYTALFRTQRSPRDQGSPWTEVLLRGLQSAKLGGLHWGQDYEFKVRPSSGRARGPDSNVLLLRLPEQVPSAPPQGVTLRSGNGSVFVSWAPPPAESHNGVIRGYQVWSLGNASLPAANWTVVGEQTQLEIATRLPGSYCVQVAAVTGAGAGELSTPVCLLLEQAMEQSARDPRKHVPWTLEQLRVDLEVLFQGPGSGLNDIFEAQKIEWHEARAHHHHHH

T3: recombinant cynomolgus Robo 4 ECD fused to AcTEV protease recognition site, Avi- and 6xHis-tag (cynomolgus)
T3 construct: Biotinylated in the avidity assay
T3 chain: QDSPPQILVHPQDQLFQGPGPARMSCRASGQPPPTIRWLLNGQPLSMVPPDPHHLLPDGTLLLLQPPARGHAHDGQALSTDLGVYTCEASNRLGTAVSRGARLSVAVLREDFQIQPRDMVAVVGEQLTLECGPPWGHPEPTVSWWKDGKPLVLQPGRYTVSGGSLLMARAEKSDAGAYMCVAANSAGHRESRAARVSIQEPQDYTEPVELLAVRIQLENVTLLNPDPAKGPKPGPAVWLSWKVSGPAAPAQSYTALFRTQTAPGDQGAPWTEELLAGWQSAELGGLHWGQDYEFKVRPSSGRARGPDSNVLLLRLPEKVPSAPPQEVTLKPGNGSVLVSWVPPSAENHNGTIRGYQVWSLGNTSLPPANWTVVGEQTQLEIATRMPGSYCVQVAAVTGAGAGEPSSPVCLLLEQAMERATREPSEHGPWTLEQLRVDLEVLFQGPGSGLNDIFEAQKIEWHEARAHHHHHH


Columns and labels:
[1] = molecular target: T4, human Robo 4 FN-like domain 2-Fc (human, UniProt P0DOX5 222-449 = IgG part); experiment: SPR, IgG captured via anti-human Fab, domain-Fc as analyte
T4 construct: also called fibronectin-like domain 2
Description: (§1) All surface plasmon resonance (SPR) experiments are performed on a Biacore T100 at 25° C. with HBS-EP as running buffer (0.01 M HEPES pH 7.4, 0.15 M NaCl, 3 mM EDTA, 0.005% Surfactant P20 (Biacore)).
(§2) For determination of the epitope of the four analyzed anti-Robo 4 antibodies, domain variants of human Robo 4 (FN-like domain 1, FN-like domain 2, Ig-like domain 1 and Ig-like domain 2) were used. Anti-Robo 4 antibodies were captured for 60 s at 50 nM on a sensorchip surface with immobilized anti-human Fab specific antibody (GE Healthcare). Domain variants of human Robo 4 were passed at a concentration range of 0.46-1000 nM with a flow of 30 μl/min through the flow cells over 90 s. The dissociation was monitored for 120 s. Bulk refractive index differences were corrected for by subtracting the response obtained on reference flow cell as described above.

[2] = molecular target: T5, human Robo 4 Ig-like domain 2-Fc (human, UniProt P0DOX5 222-449 = IgG part); experiment: as above
T5 construct: also called IgG-like domain 2
Description: as §1, §2

[3] = molecular target: T6, human Robo 4 Ig-like domain 1-Fc (human, UniProt P0DOX5 222-449 = IgG part); experiment: as above
T6 construct: also called IgG-like domain 1
Description: as §1, §2

[4] = molecular target: T7, human Robo 4 FN-like domain 1-Fc (human, UniProt P0DOX5 222-449 = IgG part); experiment: as above
T7 construct: also called fibronectin-like domain 1
Description: as §1, §2

[5] = molecular target: T1, human (hu) Robo 4 extracellular domain …; experiment: SPR Biacore T100, biotinylated antigen on streptavidin chip, IgG as analyte (avidity)
Description: as §1
Determination of avidity was done by direct immobilization of biotinylated recombinant human, murine and cynomolgus Robo 4 on a Streptavidin sensor chip. Immobilization level ranged from 300 to 1000 RU. Anti-Robo 4 antibodies were passed through the flow cells for 220 s at 30 μl/min in a concentration range from 0.78-50 nM. Dissociation was monitored for 220 s. For the blank and the 25 nM injection dissociation was monitored for 600 s.
(§3) Kinetic constants were derived using the Biacore T100 Evaluation Software (vAA, Biacore), to fit rate equations for 1:1 Langmuir binding by numerical integration.

[6] = molecular target: T1, human (hu) Robo 4 extracellular domain …; experiment: SPR Biacore T100, IgG captured via anti-human Fab, antigen as analyte (affinity)
Description: as §1
(§4) Anti Robo 4 antibodies were captured for 60 s at 50 nM. Recombinant human, murine and cynomolgus Robo 4 were passed at a concentration range from 0.46-1000 nM with a flow of 30 μl/min through the flow cells over 90 s. The dissociation was monitored for 120 s. Bulk refractive index differences were corrected for by subtracting the response obtained on a reference flow cell. Here, the antigens were flown over a surface with immobilized anti-human Fab specific antibody on which HBS-EP has been injected rather than the antibodies.
as §3

[7] = molecular target: T2, murine (mu) Robo 4 ECD-PreS-Avi-His; experiment: as above
Description: as §1, §4, §3

[8] = molecular target: T3, recombinant cynomolgus Robo 4 ECD fused …; experiment: as above
Description: as §1, §4, §3

Binder	binding result [1]	Kd [2] [nM]	binding result [3]	binding result [4]	Kd [5] [nM]	koff [5] [s⁻¹]	kon [5] [M⁻¹ s⁻¹]	Kd [6] [nM]	koff [6] [s⁻¹]	kon [6] [M⁻¹ s⁻¹]	Kd [7] [nM]	koff [7] [s⁻¹]	kon [7] [M⁻¹ s⁻¹]	Kd [8] [nM]	koff [8] [s⁻¹]	kon [8] [M⁻¹ s⁻¹]	Kd [1] [nM]	binding result [2]	Kd [3] [nM]
01F09 anti-Robo 4 IgG (antibody, V domains shown, also called 01F09 IgG) VH: QIQLQESGPGLVKPSQSLSLTCSVTGYSISSGSLWTWIRQFPGNNLEWMGYISYAGGIDYNPSLTSRISITRDTSRNQFFLQLESVTTQDTATYYCATPGGYPFHFDYWGQGTMVTVSS VL: QPVLTQSPSASASLGASVKLTCTLNSQFSTYNIGWYQQHRDKPPKYVMFVKGDGGHSKADGIPDRFSGSSSGADRYLTISNIQAEDEAIYFCGADYNNAGQYGCVFGSGTHFTVLG	no binding (tested: 0.46-1000 nM)	55.5	no binding (tested: 0.46-1000 nM)	no binding (tested: 0.46-1000 nM)	0.018	3.78e-05	2.1e+06	2.63	0.00063	241000	256	0.0307	120000	474	0.0315	66600	–	–	–
01F05 anti-Robo 4 IgG (antibody, V domains shown, also called 01F05 IgG) VH: QVQLKQSGAELVKPGASVKISCKTSVYTFTYGYMHWVEQKPGQGLEWIGRIDPDSGNSMYNQKFQGRATLTRDKSSSTVYMELRSLTSEDSAVYYCARSMRYSGYRDYALDLWGQGTQVTVSS VL: QLVLTQSPSASASLGASVKLTCTLSSQHSSYGITWLQQHPDKAPKYVMYLKSDGSHTKGADIPDRFSGSSSGVHRYLSISNVQPEDEAIYFCVTYDSTHVFGSGTQLTVLG	–	–	no binding (tested: 0.46-1000 nM)	no binding (tested: 0.46-1000 nM)	0.093	6.13e-05	657000	15.3	0.00091	59600	10.1	0.00031	30800	144	0.00191	13300	30.6	no binding (tested: 0.46-1000 nM)	–
7G2 anti-Robo 4 IgG (antibody, V domains shown, also called 7G2 IgG) VH: not shown VL: EIVLTQSPGTLSLSPGERATLSCRASQSVSSSYLAWYQQKPGQAPRLLIYGASSRATGIPDRFSGSGSGTDFTLTISRLEPEDFAVYYCQQGQLPPRTFGQGTKVEIK	no binding (tested: 0.46-1000 nM)	66.7	–	no binding (tested: 0.46-1000 nM)	0.421	0.000152	361000	23.4	0.00102	43800	–	–	–	64.1	0.00116	18100	–	–	151
01E06 anti-Robo 4 IgG (antibody, V domains shown, also called 01E06 IgG) VH: EVQLVESGGGLSQPGNSLKLSCEASGFTFRNYDMSWVRQAPGKGLEWVAYISSGGGPIYYVDAVKGRFTISRDNAKNLLFLQMNNLRSEDTAVYYCARDLADIGVFDYWGQGTMVTVSS VL: DFKMTQSPDILSPSLGESVTITCQSSQNIYSNLAWYQQKPGEHPKLLIYTASILADGIPSRFTGSGSGTQFSLKISSLQPDDVANYYCQQYVYYRTFGPGTKLEIK	no binding (tested: 0.46-1000 nM)	4.9	no binding (tested: 0.46-1000 nM)	no binding (tested: 0.46-1000 nM)	0.0007	~1.25e-06	1.76e+06	0.69	0.00033	479000	166	0.0128	77100	0.96	8e-05	80400	–	–	–
